Consider two molecules from article PMC7466704, “A Peptide-Based Nanocarrier for an Enhanced Delivery and Targeting of Flurbiprofen into the Brain for the Treatment of Alzheimer’s Disease: An In Vitro Study” (Nanomaterials, 2020).

SMILES strings stand for the structures. Several values for one entry are separate records, joined by “and”; a condition that tells them apart may be missing. Identical values can stand only once. Where a SMILES comes first, the peptide text is derived from it. The star is where a group is joined. X1 = CC(C(=O)*)c1ccc(-c2ccccc2)c(F)c1

One data set deals with bEnd.3 monolayer. Briefly: Penetration across in vitro BBB model (bEnd.3 monolayer on transwell). The conditions noted are these: for Percentage permeated across in vitro BBB model (% of applied concentration): bEnd.3 monolayer on 12-transwell inserts, 200 µM in FBS-free, phenol-free culture media, HPLC C18, UV 248 nm; for Increase of percentage permeated relative to free FP: 200 µM. It counts as in vitro ADME, mouse. On the procedure: The lyophilised powders of both AEP-K-FP and the free drug (FP) were dissolved in the FBS-free, phenol-free culture media in a concentration of 200 µM. Quantitative analysis of penetration for the free-drug and drug-attached delivery system was undertaken using HPLC (Agilent technology, Stockport, UK). The analysis was carried out using a hydrophobic C18 column (150 × 4.6 mm) at 25 °C and 20 μL of injection volume. The flow rate used was 0.6 mL/min, while the UV-detection wavelength was 248 nm, which is the λmax of FP [9]. The HPLC mobile phase solvents consisted of water/acetonitrile in which the gradient of eluent was run from 75:25 to 25:75 water: acetonitrile over 20 min. The standard curve for each molecule was obtained to calculate the percentage of the amount that transported across the in vitro BBB model.
To establish an in vitro BBB model, bEnd.3 cells were seeded on microporous membrane of 12-transwell inserts with complete culture media in a routine manner. Trans-endothelial electrical resistance (TEER) between apical and basolateral chambers was measured using an Evom voltometer (Sarasota, FL, USA) to determine the day of maximum values indicating tight junction formation, as previously described.

In data set [1] the test system is γ-secretase in C6 glial cells. In words: Quantification of γ-secretase enzyme by sandwich ELISA in treated cells. It counts as cell-based. The conditions noted are these: 200 µM in F-12K, 4 h, cell lysate supernatant, 6 readings, untreated control 28.43 ± 8.32. As to the method:
C6 glial cells (ATCC-) (passages less than 20) were seeded using the complete growth medium, which was made according to the ATCC product sheet by addition of FBS to a final concentration of 2.5% v/v and horse serum (Gibco Gaithersburg, MD, USA) to a final concentration of 15% v/v to F-12K medium. Experiments were performed when cells reached confluence.
The investigation is based on sandwich enzyme-linked immunosorbent assay (ELISA) technology using a γ-secretase enzyme kit (Abbexa Ltd., Cambridge, UK). After confluence, C6 glial cells were treated with 200 µM FP or AEP-K-FP / F-12K solution. Wells containing untreated C6 cells were also included as a control. After 4 h of incubation, cells were washed and lysed to be centrifuged, and the supernatant was collected for assaying the γ-secretase activity immediately, according to kit instructions. Data were expressed as pg/mL, following kit instructions.

On the set-up of data set [2]: method as in PMID 7736686. The conditions noted are these: cited from earlier work.
The test system of the next data set is γ-secretase. Further details: method as in PMID 20009055, PMID 18450517. The following applies: at target brain tissue; cited from earlier work.
A further data set relates to bEnd.3 cells. Briefly: LDH release assay (loss of cell membrane integrity). The data set is classed as cell-based, mouse. The following applies: 25 to 400 µM, 24 and 48 h, absorbance 492 nm, n = 6. On the procedure: Immortalised brain endothelial cells, bEnd.3 (passages 15–20), were cultured, according to the (manufacture ATCC) product sheet, in a Dulbecco’s modified eagle’s medium (DMEM) high glucose medium with L-pyruvate, containing 10% (v/v) foetal bovine serum (FBS) and 1% (v/v) of 500 U/mL Penicillin/Streptomycin (Gibco, Gaithersburg, MD, USA). Cells were seeded at a density of 5 × 10^4 cells per cm^2 in 24-well plates, which were incubated at 37 °C and 5% CO2 with replacement of the culture media every 3 days.
(§1) The lactate dehydrogenase (LDH) assay provides an indication of loss of cell membrane integrity and was measured using a Promega CytoTox96® nonradioactive cytotoxicity assay kit (Southampton, UK) after 24 and 48 h of treatment. Absorption was read spectrophotometrically at 492 nm and converted to a percentage of the total LDH released from the positive control (untreated cells with complete lysis).

The test system of the next data set is HUVEC. Described as above. It counts as cell-based, human. The following applies: 25 to 400 µM, 24 and 48 h, absorbance 492 nm, n = 6. On the procedure: The synthesised AEP-K-FP was also tested on human umbilical vein endothelial cells (HUVECs) (ATCC- Manassas, VA, USA) (passages 35 to 39). HUVECs were routinely cultured in an endothelial basal medium (F-12K) containing 0.05 mg/mL of endothelial cell growth supplement (ECGS), 0.1 mg/mL of heparin (Gibco Gaithersburg, MD, USA) and adjusted to a final concentration of 10% v/v of FBS (according to the manufacturer’s recommendations).
as §1

For data set [3], the system named is brain endothelial cells (bEnd.3). Briefly: Hoechst 33342/propidium iodide (HPI) staining, cell death assessment. The data set is classed as cell-based, mouse. The following applies: 100, 300 and 400 µM, 24 h, n = 6. An excerpt:
For cell death assessment, Hoechst 33342 and propidium iodide (PI) salt (HPI) was used (Sigma-Aldrich, Gillingham, UK). These intracellular dyes stain cells in which the Hoechst 33342 binds to DNA, so it is staining the nuclei, whereas PI stains […], resulting in emission of light observed under a fluorescent microscopy. Live cells appear blue with intact membranes on microscopic examination, and those at early and late apoptotic phases appear bright blue with shrinkage. On the other hand, necrotic or damaged cells appear red with ruptured membranes.
HPI dye was prepared by adding 900 µL of DMEM to a mixture solution of 50 µL of 1mg/mL Hoechst 33342 and 50 µL of 2 μg/mL PI in a glass vial. After 24 h of treatment and incubation, which were performed as previously discussed, an epi fluorescent microscopy (Olympus microscope equipped with a Nikon D1X camera, UK) was used to identify and count the cells with distinct morphologies. Cell counts for healthy (living), apoptotic, or necrotic cells were obtained from the same treatment in duplicate wells and from three different fields for each well. Counting of the cells was measured according to their appearance then averaged and expressed as a percent of the total cell number.

A short description of data set [4]: Hydrolysis and drug release in acidic lysosome-mimicking buffer. The data set is classed as physicochemical. The following applies: phthalate buffer pH 4.5; 200 µM; static, 24 h, 37 °C; HPLC. As to the method:
The AEP-K-FP was analysed for the hydrolysis of the amide linkage that coupled the drug molecules to the peptide carrier as well as its amino acids residues. This hydrolysis of the complex was evaluated in an acidic solution mimicking the lysosomal pH conditions that are likely to be found in an inflamed tissue such as that of AD-affected brain tissue. The acidic buffer solution was prepared using a phthalate solution, according to manufacturer’s instructions (Thomas Scientific, Swedesboro, NJ, USA), to obtain a final pH of 4.5. The AEP-K-FP was dissolved in this buffer solution at a concentration of 200 µM and incubated at static conditions for 24 h, 37 °C. Samples were collected and analysed by HPLC.

Regarding `CC(C(=O)O)c1ccc(-c2ccccc2)c(F)c1` (stereo not drawn) [FP, Flurbiprofen], the “Penetration, % of initial payload concentration” value in the data set on bEnd.3 monolayer (bEnd.3 BBB model, time not stated at this place (discussion)) is given as “less than 9%”. For the same molecule, the “Percentage permeated across in vitro BBB model (% of applied concentration)” value with bEnd.3 monolayer (1 h) is no more than 2.7%; with bEnd.3 monolayer (4 h), no more than 8.5%. The “γ-secretase enzyme amount, Mean ± SD” value in data set [1] is 8.2 pg/mL and 8.20 ± 3.80 pg/mL. For the same molecule, the Biological half-life in data set [2] is on record as 4 h. For the same molecule, in data set [2], the “Time to full excretion from the body” value is recorded as no more than 24 h. Besides, in the data set on γ-secretase, the “Required therapeutic concentration for significant pharmacological effect on γ-secretase activity” value was 150−250 μM.
Take `CC(C)C[C@H](NC(=O)[C@H](CC(C)C)NC(=O)[C@H](CCCNC(=N)N)NC(=O)[C@H](CCCCN)NC(=O)[C@H](CCCNC(=N)N)NC(=O)[C@H](CC(C)C)NC(=O)[C@H](CCCCN)NC(=O)[C@H](CCCNC(=N)N)NC(=O)[C@H](CC(C)C)NC(=O)[C@H](CCCCNC(=O)C(C)c1ccc(-c2ccccc2)c(F)c1)NC(=O)C(C)c1ccc(-c2ccccc2)c(F)c1)C(=O)N[C@@H](CCCNC(=N)N)C(=O)O` (stereo partly drawn) [AEP-K-FP] (X1-K(X1)LRKLRKRLLR-OH; N-terminus and C-terminus assumed): the “LDH release, % of positive control (complete lysis)” value in the data set with bEnd.3 cells and in the data set on HUVEC was “less than 50%” throughout. The “Apoptotic cells, % of total cell number (HPI staining)” value in data set [3] was no more than 4.7%. Also, the “Healthy cells, % of total cell number (HPI staining)” value in data set [3] is no less than 91%. Further, the “Necrotic cells, % of total cell number (HPI staining)” value in data set [3] was no more than 3.4%. Also, the “Increase of percentage permeated relative to free FP” value is “more than 6 times” with bEnd.3 monolayer (bEnd.3 BBB model, 1 h) and 4 times with bEnd.3 monolayer (bEnd.3 BBB model, 4 h). The “Percentage permeated across in vitro BBB model (% of applied concentration)” value worked out at 16.3% in the data set with bEnd.3 monolayer (1 h) and 35.9% in the data set on bEnd.3 monolayer (4 h). For the same molecule, the “γ-secretase enzyme amount, Mean ± SD” value in data set [1] is 14.6 pg/mL and 14.60 ± 3.51 pg/mL. For the same molecule, the “Percentage of hydrolysed FP out of the total amount of AEP-K-FP” value in data set [4] is recorded as 69.2%.
